Source: US12553059B2, “Plant serine proteases” (priority 2018, dated 2026)
Entries after “also recorded” stand apart in the source; their conditions may differ.

Columns and labels:
HIV-1 UG37 gp140 = assay: ELISA antigen binding of 2G12 (I19R 2G12 precomplexed with anti-Fc); details: 2G12 (I19R variant) cleaved by apoplastic proteases
Protocol: A slightly modified ELISA procedure was used for the analysis of 2G12 containing an I19R mutation in the heavy chain (I19R 2G12). Wells were coated with 500 ng HIV-1 UG37 gp140 in PBS. […] (Doores K J et al. J Virol 84 (2010):10690-10699) prior to appropriate dilution and addition to the wells. Detection of antigen-bound mAb molecules was performed with 0.1 μg/mL goat anti-human kappa chain peroxidase conjugate (SIGMA-ALDRICH, A7164).

monoclonal antibody 2F5 = assay: In vitro degradation assay with purified proteases, substrate 2F5; assay type: biochemical; details: purified protease 10-100 μg/mL, pH 5.5
Chain of monoclonal antibody 2F5 (as listed by the source): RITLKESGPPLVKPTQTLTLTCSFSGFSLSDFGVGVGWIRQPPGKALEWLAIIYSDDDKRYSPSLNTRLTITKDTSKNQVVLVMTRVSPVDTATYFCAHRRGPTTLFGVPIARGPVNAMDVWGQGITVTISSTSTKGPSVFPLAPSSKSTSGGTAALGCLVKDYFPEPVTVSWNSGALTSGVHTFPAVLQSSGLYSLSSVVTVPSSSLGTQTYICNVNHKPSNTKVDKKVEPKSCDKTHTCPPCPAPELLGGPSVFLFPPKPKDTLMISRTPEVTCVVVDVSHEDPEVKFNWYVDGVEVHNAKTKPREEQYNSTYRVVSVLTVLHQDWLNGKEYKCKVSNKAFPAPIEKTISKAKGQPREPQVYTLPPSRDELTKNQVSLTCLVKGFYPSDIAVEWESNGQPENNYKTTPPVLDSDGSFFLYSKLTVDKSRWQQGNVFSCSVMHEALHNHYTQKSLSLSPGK
Protocol: (§1) Leaves of Nicotiana benthamiana […] (Strasser R et al. Plant Biotechnol J 6 (2008):392-402) expressing a subtilisin-like serine protease construct were submerged in extraction buffer (50 mM sodium phosphate/200 mM KCl, pH 7.0) prior to vacuum exposure in a desiccator. Exogenous buffer was removed prior to centrifugation of the leaves for 15 min at 2000 g and 4° C. The recovered solution was then supplemented with 20 mM imidazole and loaded on a 1 mL column of Chelating Sepharose (GE […]) charged with Ni^2+ ions. After washing with the same buffer, the recombinant subtilisin-like serine protease was eluted with 250 mM imidazole in extraction buffer. Protein-containing eluate fractions were pooled, dialysed twice against 2 liters of extraction buffer and then concentrated by ultrafiltration using Microsep Advance centrifugal devices (10K MWCO; PALL CORPORATION).
(§2) After incubation for up to 16 h, reactions were stopped by addition of SDS-PAGE sample buffer.
(§3) For isolation of mAb degradation products, antibodies ([…]) were digested with apoplastic fluid or purified subtilisin-like serine proteases in 500 μL 100 mM sodium acetate (pH 5.5) to completion. After addition of 10 μL settled rProtein A Sepharose 4 Fast Flow beads, the samples were incubated for 2 h at 4° C. under constant agitation. The beads were then collected by centrifugation, washed four times with 500 μL PBS prior to elution of the bound antibody fragments with 100 μL 100 mM glycine (pH 3.0). The eluate was immediately neutralized with 10 μL 1 M Tris/HCl (pH 8.0). This elution/neutralization cycle was repeated four times. […]
(§4) N-terminal sequence analysis of bands blotted on polyvinylidene difluoride membranes (BIO-RAD) was performed by Edman degradation (Niemer M et al. Biotechnol J 9 (2014):493-500). […] Eluted polypeptides were analysed online on a maxis 4G ETD Q-TOF mass spectrometer (BRUKER, Billerica, USA) equipped with an electrospray ionization source and operated in the positive ion mode (m/z range: 400-3800). […]

I19R 2G12 = assay: In vitro degradation assay with purified proteases, substrate I19R 2G12; assay type: biochemical; details: for cleavage sites in I19R 2G12 heavy chain (arrows): N-terminal sequencing and mass spectrometry; for cleavage / degradation of I19R 2G12 by purified protease: purified protease 10-100 μg/mL, pH 5.5
Chain of I19R 2G12 (as listed by the source, stated change not applied): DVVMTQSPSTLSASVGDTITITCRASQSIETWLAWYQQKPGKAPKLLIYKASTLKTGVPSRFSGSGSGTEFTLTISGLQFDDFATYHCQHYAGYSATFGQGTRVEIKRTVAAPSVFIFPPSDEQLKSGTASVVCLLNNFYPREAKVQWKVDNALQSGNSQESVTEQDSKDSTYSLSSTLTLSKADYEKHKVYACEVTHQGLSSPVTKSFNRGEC
Chain of I19R 2G12 (as listed by the source, stated change not applied): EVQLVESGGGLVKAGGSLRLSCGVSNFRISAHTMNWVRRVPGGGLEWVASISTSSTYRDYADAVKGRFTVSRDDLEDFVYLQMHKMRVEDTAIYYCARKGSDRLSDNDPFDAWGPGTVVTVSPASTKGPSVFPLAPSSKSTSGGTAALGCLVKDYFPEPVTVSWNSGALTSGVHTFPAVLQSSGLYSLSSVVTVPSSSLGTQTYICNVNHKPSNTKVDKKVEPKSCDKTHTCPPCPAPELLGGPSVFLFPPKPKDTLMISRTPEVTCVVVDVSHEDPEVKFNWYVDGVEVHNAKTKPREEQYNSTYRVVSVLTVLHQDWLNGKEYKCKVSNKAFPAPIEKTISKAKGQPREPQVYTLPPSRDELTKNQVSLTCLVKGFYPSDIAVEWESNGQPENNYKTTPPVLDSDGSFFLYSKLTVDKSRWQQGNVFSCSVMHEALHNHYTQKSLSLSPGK
Protocol: as §1, §2
For isolation of mAb degradation products, antibodies ([…]) were digested with apoplastic fluid or purified subtilisin-like serine proteases in 500 μL 100 mM sodium acetate (pH 5.5) to completion. After addition of 10 μL settled rProtein A Sepharose 4 Fast Flow beads, the samples were incubated for 2 h at 4° C. under constant agitation. The beads were then collected by centrifugation, washed four times with 500 μL PBS prior to elution of the bound antibody fragments with 100 μL 100 mM glycine (pH 3.0). The eluate was immediately neutralized with 10 μL 1 M Tris/HCl (pH 8.0). This elution/neutralization cycle was repeated four times. All eluate fractions were combined and concentrated by ultrafiltration after buffer exchange into PBS containing 0.02% (v/v) NaN3.
Samples were fractionated by 12.5% SDS-PAGE under reducing conditions and then blotted on nitrocellulose membranes (GE […]).
as §4, with “(2014):493-500). Alternatively, antibodies or their degradation products were digested with PNGase F (ROCHE) to release their N-glycans, reduced with 10 mM DTE (1 h, 56° C.) and then fractionated on a THERMO PROSWIFT RP-4H column (250×0.20 mm) using a Dionex UltiMate 3000 HPLC system (THERMO […]).” for “(2014):493-500).”

PG9 = assay: In vitro degradation assay with purified proteases, substrate PG9; assay type: biochemical; details: for cleavage / degradation of PG9 by purified protease: purified protease 10-100 μg/mL, pH 5.5
Chain of PG9 (as listed by the source): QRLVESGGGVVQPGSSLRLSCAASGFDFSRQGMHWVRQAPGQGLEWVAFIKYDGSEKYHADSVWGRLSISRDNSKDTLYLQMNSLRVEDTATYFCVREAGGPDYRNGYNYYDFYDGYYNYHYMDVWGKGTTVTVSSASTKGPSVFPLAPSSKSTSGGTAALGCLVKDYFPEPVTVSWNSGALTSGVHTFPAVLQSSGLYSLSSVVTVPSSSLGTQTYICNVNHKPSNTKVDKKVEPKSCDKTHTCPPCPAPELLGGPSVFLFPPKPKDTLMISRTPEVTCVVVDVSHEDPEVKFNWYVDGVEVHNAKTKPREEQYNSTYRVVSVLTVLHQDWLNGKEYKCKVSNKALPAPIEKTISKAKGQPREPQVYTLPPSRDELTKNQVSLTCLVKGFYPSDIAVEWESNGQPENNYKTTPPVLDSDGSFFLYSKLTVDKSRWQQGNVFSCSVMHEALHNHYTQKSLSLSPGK
Protocol: as §1, §2, §3, §4

SBT1 (SEQ ID No. 2) = assay: Kinetic analysis of protease-inhibitor interactions, SBT1; assay type: biochemical, Nicotiana benthamiana; details: recombinant inhibitor from E. coli; substrate Abz-VILDAVRA-Y(NO2)
Protocol: (§5) These assays were performed as described (Hohl M et al., 2017, J. Biol. Chem. 292, 6389-6401). A fluorogenic peptide substrate, Abz-[…]-Y(NO2) (SEQ ID NO: 37), was used for measuring the enzymatic activity of the subtilisin-like serine proteases tested. Recombinant inhibitors (prepared as described in Hohl M et al., 2017, J. Biol. Chem. 292, 6389-6401) were added in serial dilutions. Substrate cleavage was monitored in an Infinite M200 Pro microplate reader as increase in relative fluorescence (λex=320 nm; λem=420 nm). Inhibition constants (Ki) were calculated using the Morrison equation.

SBT2 (SEQ ID No. 14) = assay: Kinetic analysis of protease-inhibitor interactions, SBT2; assay type: biochemical, Nicotiana benthamiana; details: recombinant inhibitor from E. coli; substrate Abz-VILDAVRA-Y(NO2)
Chain of SBT2 (SEQ ID No. 14) (as listed by the source): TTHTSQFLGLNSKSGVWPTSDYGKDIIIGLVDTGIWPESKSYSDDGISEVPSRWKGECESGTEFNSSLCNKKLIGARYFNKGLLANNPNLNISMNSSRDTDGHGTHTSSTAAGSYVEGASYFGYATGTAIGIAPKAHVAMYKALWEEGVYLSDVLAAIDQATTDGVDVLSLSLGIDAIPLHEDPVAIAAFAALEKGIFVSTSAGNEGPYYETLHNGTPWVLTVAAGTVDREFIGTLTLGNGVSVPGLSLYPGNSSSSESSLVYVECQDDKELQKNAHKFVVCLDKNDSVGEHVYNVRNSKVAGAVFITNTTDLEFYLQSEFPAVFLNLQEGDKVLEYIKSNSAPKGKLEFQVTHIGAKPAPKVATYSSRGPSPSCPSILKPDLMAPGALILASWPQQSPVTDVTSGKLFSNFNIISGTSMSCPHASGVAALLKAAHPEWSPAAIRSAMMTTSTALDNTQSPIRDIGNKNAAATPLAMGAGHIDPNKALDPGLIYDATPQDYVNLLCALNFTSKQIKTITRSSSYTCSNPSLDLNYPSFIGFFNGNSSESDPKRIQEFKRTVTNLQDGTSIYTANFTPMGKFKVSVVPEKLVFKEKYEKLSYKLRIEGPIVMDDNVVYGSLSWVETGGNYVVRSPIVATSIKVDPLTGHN
Protocol: as §5

2G12: neutralizing anti-HIV antibody, heavy chain SEQ ID No. 24, light chain SEQ ID No. 28
antigen-binding activity of cleaved vs intact antibody (ELISA) (HIV-1 UG37 gp140): severely reduced binding; also recorded: much lower antigen-binding activity

trypsin [reference compound]
cleavage / degradation of 2F5 by purified protease (monoclonal antibody 2F5): did not display cleavage activity; also recorded: cannot cleave

B1: SBT3: other serine protease (Cedzich A et al. 2009) (protein, UniProt O82777 113-761, looked up)
Subtilisin-like protease SBT3: TTHTSDFLKLNPSSGLWPASGLGQDVIVAVLDSGIWPESASFQDDGMPEIPKRWKGICKPGTQFNASMCNRKLIGANYFNKGILANDPTVNITMNSARDTDGHGTHCASITAGNFAKGVSHFGYAPGTARGVAPRARLAVYKFSFNEGTFTSDLIAAMDQAVADGVDMISISYGYRFIPLYEDAISIASFGAMMKGVLVSASAGNRGPGIGSLNNGSPWILCVASGHTDRTFAGTLTLGNGLKIRGWSLFPARAFVRDSPVIYNKTLSDCSSEELLSQVENPENTIVICDDNGDFSDQMRIITRARLKAAIFISEDPGVFRSATFPNPGVVVNKKEGKQVINYVKNSVTPTATITFQETYLDTKPAPVVAASSARGPSRSYLGISKPDILAPGVLILAAYPPNVFATSIGTNILLSTDYILESGTSMAAPHAAGIAAMLKAAHPEWSPSAIRSAMMTTADPLDNTRKPIKDSDNNKAATPLDMGAGHVDPNRALDPGLVYDATPQDYVNLLCSLNFTEEQFKTIARSSASHNCSNPSADLNYPSFIALYSIEGNFTLLEQKFKRTVTNVGKGAATYKAKLKAPKNSTISVSPQILVFKNKNEKQSYTLTIRYIGDEGQSRNVGSITWVEQNGNHSVRSPIVTSPIIEVW
cleavage / degradation of 2F5 by purified protease (monoclonal antibody 2F5): did not display cleavage activity; also recorded: cannot cleave

B2: SBT2: Nicotiana benthamiana subtilisin-like serine protease comprising SEQ ID No. 14 (protein, listed as Nicotiana benthamiana)
chain: MANHITLCIWLLFFFISIFSLAKSETYIIHMDLSAMPKAFSSHHNWYLTTLSSVSDSSTNHKDFLSSKLVYAYTNAIHGFSASLSPSELEAIKYSPGYVSSIKDISVKIDTTHTSQFLGLNSKSGVWPTSDYGKDIIIGLVDTGIWPESKSYSDDGISEVPSRWKGECESGTEFNSSLCNKKLIGARYFNKGLLANNPNLNISMNSSRDTDGHGTHTSSTAAGSYVEGASYFGYATGTAIGIAPKAHVAMYKALWEEGVYLSDVLAAIDQAITDGVDVLSLSLGIDAIPLHEDPVAIAAFAALEKGIFVSTSAGNEGPYYETLHNGTPWVLTVAAGTVDREFIGTLTLGNGVSVPGLSLYPGNSSSSESSLVYVECQDDKELQKNAHKFVVCLDKNDSVGEHVYNVRNSKVAGAVFITNTTDLEFYLQSEFPAVFLNLQEGDKVLEYIKSNSAPKGKLEFQVTHIGAKPAPKVATYSSRGPSPSCPSILKPDLMAPGALILASWPQQSPVTDVTSGKLFSNFNIISGTSMSCPHASGVAALLKAAHPEWSPAAIRSAMMTTSTALDNTQSPIRDIGNKNAAATPLAMGAGHIDPNKALDPGLIYDATPQDYVNLLCALNFTSKQIKTITRSSSYTCSNPSLDLNYPSFIGFFNGNSSESDPKRIQEFKRTVTNLQDGTSIYTANFTPMGKFKVSVVPEKLVFKEKYEKLSYKLRIEGPIVMDDNVVYGSLSWVETGGNYVVRSPIVATSIKVDPLTGHN
cleavage sites in I19R 2G12 heavy chain (arrows) (I19R 2G12): SD↓RL | cleavage / degradation of I19R 2G12 by purified protease (I19R 2G12): capable of acting on; also recorded: can cleave the heavy chains | cleavage / degradation of PG9 by purified protease (PG9): capable of acting on; also recorded: can cleave the heavy chains

B3: S11: S. lycopersicum subtilisin propeptide-like inhibitor, SEQ ID No. 33, recombinant from E. coli (protein)
chain: MMKKDQILSSILLFFFLFTAFITTMADSQASSQPSNESKVHIVYTEQPKDQEPEEYHIKTLTSVLGSEEAAKEALLYSYKHAASGFSAKLTAEQVSELSKLPGVLQVVPSQTVQLHTGRV
modifications: Protease inhibitor
binding affinity to / inhibition of SBT1 (SBT1 (SEQ ID No. 2)): high affinities | binding affinity to / inhibition of SBT2 (SBT2 (SEQ ID No. 14)): high affinities

B4: SBT1: Nicotiana benthamiana subtilisin-like serine protease comprising SEQ ID No. 2 (protein, listed as Nicotiana benthamiana)
chain: MKGIISLFFCFSLFIVSFILREADSASQAQNNGIYIVYMGAAASSNGGTRHDQARLISSLIRRNKHAVVHSYNNGFSGFAARLSESEAKSMAQRPGVISVFPDPVLQLHTTHSWDFLKYQTDEKINSSPSSGSDSSLIGADTIIGILDTGIWPESESFNDKDMGPIPSRWNGTCMDGQDFGSSKCNKKIVGARFYEESDDSGTKIAGSARDENGHGTHVASTAAGSPVAGASYYGLAAGTATGGSPGSRISMYRVCTTFGCRGSAIMKAFDDAIADGVDVLSLSLGSSPGLEPDFPSNPIAIGAFHAVEKGITVVCSAGNSGPGPKTVVNTAPWILTVAATTIDRDFETDIVLGGNKLIKGGGINFGNMTKSSVYPLIHGNSTKSNDNVSEADARSCVPGSLDENKVKGKIVLCENLDDGEYFPSDKLDEVKSRGGVGFILIDDDERTVAPKFNSFSAGVVSKKDGNEILAYINSTRNPVASILPTVSITKYKPAPVVAYFSSRGPAYNTPNLLKPDITAPGVAILAAWPGNDTSEALPGQKPPIFNLLSGTSMSCPHVSGIAATVKAVNPTWSPSAVKSAIMTTAIQTNNLKAPITTVSGSKATPYDIGAGEASTSGPLKPGLVYETDVADYLQFLCSVGFNISQIKLISITVPEDFSCPKNSTSELVSNMNYPSIAISSLKENEPKKVTRTVTNTGEEASVYTTVIEAPKGLEVQVIPTKLEFTNKSKKLSYDVSFKASSTSKEDLFGSITWTNGKYKVRSPFVVSSN
cleavage / degradation of 2F5 by purified protease (monoclonal antibody 2F5): degrade; also recorded: can cleave the heavy chains | cleavage sites in I19R 2G12 heavy chain (arrows) (I19R 2G12): ↓TV and TV↓VT | cleavage / degradation of I19R 2G12 by purified protease (I19R 2G12): degrade; also recorded: can cleave the heavy chains | cleavage sites in PG9 heavy chain (arrows) (PG9; N-terminal sequencing and mass spectrometry): DGYYNYHYM↓[…] | cleavage / degradation of PG9 by purified protease (PG9): degrade; also recorded: can cleave the heavy chains
